According to patent US20060183130A1 (VANDERBILT UNIVERSITY, published 2006):

Target: T1, endogenous c-Myc of p53-/- mouse embryo fibroblasts (mouse, UniProt P01108-2 1-439, limits assumed)
T1 construct: Endogenous protein in a cell lysate
Test: co-IP, summary of the experiments (endogenous proteins)
Excerpt: FIGS. 2A-F ARF—binds to c-Myc. FIGS. 2A-D, Coimmunoprecipitation of ARF and c-Myc. Cos-7 cells transfected with c-Myc and/or ARF were subjected to immunoprecipitation (IP) using anti-Mycfl (fl, full length; FIG. 2A) or anti-ARF (FIG. 2B) followed by immunoblot (IB) analysis using the indicated antibody. FIG. 2C, c-myc^{-/-} cells, ARF^{-/-} MEFs or p53^{-/-} MEFs were subjected to IP using anti-Mycfl followed by IB analysis. FIG. 2D, HeLa cells were subjected to IP using anti-p14ARF or anti-Mycfl followed by IB analysis. FIG. 2E, Coimmunoprecipitation of c-Myc deletions with ARF. Cos-7 cells transfected with the indicated c-Myc deletion mutant were subjected to IP with anti-ARF followed by IB analysis. FIG. 2F, Schematic representation of the structure of c-Myc and c-Myc deletions showing relative binding to ARF.
Immunoprecipitation and Immunoblotting Analysis. Cell lysates were prepared and coimmunoprecipitation of endogenous proteins was performed as described previously (Weber et al., 1999). For coimmunoprecipitation of exogenous proteins, cells were lysed in Ab lysis buffer (20 mM Tris, pH 7.5, 0.5% Triton X-100, 0.5% deoxycholic acid (DOC) and 0.5% SDS, 1 mM EDTA) and immunoprecipitates were subjected immunoblot analysis using anti-c-Mycfl (06-340, Upstate) or anti-ARF (Ab80, GeneTex; 07-543, Upstate) and enhanced chemiluminescence for detection. […]

T1 sequence (P01108 16-454 limits assumed): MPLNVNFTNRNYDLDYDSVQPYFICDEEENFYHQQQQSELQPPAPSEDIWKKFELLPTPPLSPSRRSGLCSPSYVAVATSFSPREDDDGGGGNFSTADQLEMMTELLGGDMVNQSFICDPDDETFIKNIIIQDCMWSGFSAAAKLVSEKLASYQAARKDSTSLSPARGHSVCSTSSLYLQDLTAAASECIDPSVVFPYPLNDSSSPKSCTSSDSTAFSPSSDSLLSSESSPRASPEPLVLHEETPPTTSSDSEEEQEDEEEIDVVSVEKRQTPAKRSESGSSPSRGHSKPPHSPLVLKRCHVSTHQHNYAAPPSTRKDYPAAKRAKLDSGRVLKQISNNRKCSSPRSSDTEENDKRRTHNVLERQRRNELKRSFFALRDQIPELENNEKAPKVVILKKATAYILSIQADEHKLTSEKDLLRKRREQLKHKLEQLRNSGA

binding result: binds
B1: mouse p19ARF (murine p19Arf) (other)
chain: MGRRFLVTVRIQRAGRPLQERVFLVKFVRSRRPRTASCALAFVNMLLRLERILRRGPHRNPGPGDDDGQRSRSSSSAQLRCRFELRGPHYLLPPGARRSAGRLPGHAGGAARVRGSAGCARCLGSPAARLGPRAGTSRHRAIFAFRWVLFVFRWVVFVYRWERRPDRRA
